Assays:
[1] = biological target: Prey 2832217 protein (C11orf15 protein) (human) (UniProt Q9NQ34); assay: yeast two-hybrid (PathCalling)
[2] = biological target: Cadherin 11 (human) (UniProt P55287); assay: yeast two-hybrid (PathCalling)
[3] = biological target: Lumican (human) (UniProt P51884); assay: yeast two-hybrid (PathCalling); forty-eight independent experiments
Sequence of UniProt P51884 (P51884 217-338 limits assumed, form in doubt): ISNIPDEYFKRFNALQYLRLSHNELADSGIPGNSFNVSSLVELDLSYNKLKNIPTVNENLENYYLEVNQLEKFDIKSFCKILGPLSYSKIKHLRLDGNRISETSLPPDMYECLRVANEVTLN

Sequence of UniProt P55287 (P55287 154-796 limits assumed, form in doubt): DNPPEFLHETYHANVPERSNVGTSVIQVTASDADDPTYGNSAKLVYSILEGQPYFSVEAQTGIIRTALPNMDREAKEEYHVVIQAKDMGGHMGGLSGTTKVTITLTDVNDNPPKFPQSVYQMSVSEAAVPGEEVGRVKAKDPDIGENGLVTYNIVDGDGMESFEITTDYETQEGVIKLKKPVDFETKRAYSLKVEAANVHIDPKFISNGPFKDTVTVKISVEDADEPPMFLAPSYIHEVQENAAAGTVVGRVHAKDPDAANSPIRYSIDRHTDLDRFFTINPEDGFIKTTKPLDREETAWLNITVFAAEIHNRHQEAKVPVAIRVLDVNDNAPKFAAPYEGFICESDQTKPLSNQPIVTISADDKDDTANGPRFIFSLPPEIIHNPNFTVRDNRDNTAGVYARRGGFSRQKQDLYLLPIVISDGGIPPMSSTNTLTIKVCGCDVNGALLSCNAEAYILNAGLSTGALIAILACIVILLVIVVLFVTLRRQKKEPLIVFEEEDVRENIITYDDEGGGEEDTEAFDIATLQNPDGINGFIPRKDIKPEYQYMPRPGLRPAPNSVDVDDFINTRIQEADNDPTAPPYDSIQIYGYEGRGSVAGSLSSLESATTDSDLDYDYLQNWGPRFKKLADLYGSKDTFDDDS
Sequence of UniProt Q9NQ34 (Q9NQ34 35-167 limits assumed, form in doubt): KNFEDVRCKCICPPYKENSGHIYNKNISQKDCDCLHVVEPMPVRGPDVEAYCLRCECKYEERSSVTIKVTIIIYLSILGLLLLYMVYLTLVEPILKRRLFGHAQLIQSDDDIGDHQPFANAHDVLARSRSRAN

## CG54020 (EPHA8), ephrin type-A receptor 8 (from UniProt P29322 28-207)
[1]
  interaction rating score: 9.6
[2]
  interaction rating score: 2.7
[3]
  interaction rating score: 9.99

Source: patent US20040018199A1
